Assay results taken from article PMC5811534, “Neuropathic MORC2 mutations perturb GHKL ATPase dimerization dynamics and epigenetic silencing by multiple structural mechanisms” (Nature Communications, 2018).
Changes are numbered by the printed parent chain. In names and notes the source's numbering stands.

B1: MORC2(1–603) S87L (domain or fragment, human, UniProt Q9Y6X9-1 1-603, looked up)
chain: MAFTNYSSLNRAQLTFEYLHTNSTTHEFLFGALAELVDNARDADATRIDIYAERREDLRGGFMLCFLDDGAGMDPSDAASVIQFGKLAKRTPESTQIGQYGNGLKSGSMRIGKDFILFTKKEDTMTCLFLSRTFHEEEGIDEVIVPLPTWNARTREPVTDNVEKFAIETELIYKYSPFRTEEEVMTQFMKIPGDSGTLVIIFNLKLMDNGEPELDIISNPRDIQMAETSPEGTKPERRSFRAYAAVLYIDPRMRIFIHGHKVQTKRLSCCLYKPRMYKYTSSRFKTRAEQEVKKAEHVARIAEEKAREAESKARTLEVRLGGDLTRDSRVMLRQVQNRAITLRREADVKKRIKEAKQRALKEPKELNFVFGVNIEHRDLDGMFIYNCSRLIKMYEKVGPQLEGGMACGGVVGVVDVPYLVLEPTHNKQDFADAKEYRHLLRAMGEHLAQYWKDIAIAQRGIIKFWDEFGYLSANWNQPPSSELRYKRRRAMEIPTTIQCDLCLKWRTLPFQLSSVEKDYPDTWVCSMNPDPEQDRCEASEQKQKVPLGTFRKDMKTQEEKQKQLTEKIRQQQEKLEALQKTTPIRSQADLKKLPLEVTTRPST
notes: also called S87L variant; source: Sf9 insect cells (baculovirus), purified as for wild type; not shown: tandem StrepII, N-terminal, cleaved
B2: MORC2(1–603) T424R (domain or fragment, human, UniProt Q9Y6X9-1 1-603, looked up)
chain: B1 chain with L87S, T424R
notes: also called T424R variant; source: Sf9 insect cells (baculovirus), purified as for wild type; not shown: tandem StrepII, N-terminal, cleaved

Assays:
[1] = target: the molecule itself; assay: SEC-MALS; SEC-MALS with QELS, Superdex 200 (10/300), 293 K, gel filtration buffer (50 mM HEPES pH 7.5, 150 mM NaCl, 2 mM MgCl2, 0.25 mM TCEP); no nucleotide added; WT at 40 µM, S87L at 7.5 µM; monomer to dimer
[2] = target: the molecule itself; assay: SEC-MALS; SEC-MALS with QELS, Superdex 200 (10/300), 293 K, gel filtration buffer; 2 mM Mg-AMPPNP added to the sample, 30 min on ice before injection; WT at 40 µM, T424R at 7.5 µM; monomer to dimer

Row | Protein | stoichiometry N [1] | stoichiometry N [2]
1 | B1 | 2 | 
2 | B2 |  | 2
